Target: T1, cells overexpressing human CD36 (Homo sapiens, UniProt P16671)
T1 construct: expressed in transfected cells
Assay: FACS binding to cells overexpressing human CD36
Procedure: For FACS analysis, cells were trypsinized, collected in a 15 mL tube and diluted in washing buffer (2% FBS in PBS). Cells were then centrifuged at 1500 rpm for 5 min at 4° C., supernatant was discarded, and cells were resuspended in fresh washing buffer. Anti-CD36 antibodies were either omitted (control wash buffer treatment) or serially diluted in washing buffer (dilution range up to 100 nM), and then added to the cells. Incubation was performed on ice for 1 hour. Cells were then centrifuged at 1500 rpm for 5 min at 4° C., supernatant was discarded, and cells were resuspended in fresh washing buffer. Finally, cells were incubated with a […] (BV421 Rat Anti-Mouse IgA, Becton Dickinson, reference 743293) diluted 1:100 in washing buffer, washed and analysed by FACS.

T1 sequence (P16671 whole entry): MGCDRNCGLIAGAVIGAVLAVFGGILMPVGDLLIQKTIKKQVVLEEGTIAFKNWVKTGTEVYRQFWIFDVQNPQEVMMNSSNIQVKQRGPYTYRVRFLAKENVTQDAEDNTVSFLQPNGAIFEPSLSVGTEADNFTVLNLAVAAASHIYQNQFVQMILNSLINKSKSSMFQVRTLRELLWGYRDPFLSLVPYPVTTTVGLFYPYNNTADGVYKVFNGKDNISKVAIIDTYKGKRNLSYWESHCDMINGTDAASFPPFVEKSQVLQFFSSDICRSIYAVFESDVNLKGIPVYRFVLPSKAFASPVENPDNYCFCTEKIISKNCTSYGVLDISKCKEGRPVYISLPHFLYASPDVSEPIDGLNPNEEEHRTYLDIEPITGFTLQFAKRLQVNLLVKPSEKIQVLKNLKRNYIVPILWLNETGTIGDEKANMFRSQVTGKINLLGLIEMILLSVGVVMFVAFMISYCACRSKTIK

B1: ONA-0-v1: murine IgA anti-CD36 antibody; heavy chain SEQ ID NO: 5, light chain SEQ ID NO: 7 (antibody)
heavy: QVQLKQSGADLVRPGASVKLSCKASGYTFTDYYINWVKQRPGQGLEWIARIYPGSGNTYYNEKFKGKATLTAEKSSSTAYMQLSSLTSEDSAVYFCARGIGGGFGMDYWGQGTSVTVSSESARNPTIYPLTLPPVLCSDPVIIGCLIHDYFPFGTMNVTWGKSGKDITTVNFPPALASGGRYTMSSQLTLPAVECPEGESVKCSVQHDSNPVQELDVNCSPTPPPPITIPSCQPSLSLQRPALEDLLLGSDASITCTLNGLRNPEGAAFTWEPSTGKDAVQKKAAQNSCGCYSVSSVLPGCAERWNSGASFKCTVTHPESGTLTGTIAKVTVNTFPPQVHLLPPPSEELALNELLSLTCLVRAFNPKEVLVRWLHGNEELSPESYLVFEPLKEPGEGATTYLVTSVLRVSAETWKQGDQYSCMVGHEALPMNFTQKTIDRLSGKPTNVSVSVIMSEGDGICY
light: SIVMTQTPKFLLVSAGDRITITCKASQSVSDDVAWYQQKPGQSPKLLIYYASNRYTGVPDRFTGSGYGTDFTFTISTVQAEDLAVYFCQQDYSSPLTFGAGTKLEIKRADAAPTVSIFPPSSEQLTSGGASVVCFLNNFYPKDINVKWKIDGSERQNGVLNSWTDQDSKDSTYSMSSTLTLTKDEYERHNSYTCEATHKTSTSPIVKSFNRNEC
modifications: ONA-0-v1 heavy chain; ONA-0-v1 light chain
B1 was tested, and the “binding to cells overexpressing human CD36 (FACS)” value (antibodies at 100 nM) was “bound equivalently” and the “binding to cells overexpressing human CD36 (FACS)” value (serial dilution up to 100 nM) was “specifically bound”.
